The test deals with T1, RXFP1 receptor (endogenous, on OVCAR5 cells) (UniProt Q9HBX9 1-757, limits assumed).
T1 sequence (looked up): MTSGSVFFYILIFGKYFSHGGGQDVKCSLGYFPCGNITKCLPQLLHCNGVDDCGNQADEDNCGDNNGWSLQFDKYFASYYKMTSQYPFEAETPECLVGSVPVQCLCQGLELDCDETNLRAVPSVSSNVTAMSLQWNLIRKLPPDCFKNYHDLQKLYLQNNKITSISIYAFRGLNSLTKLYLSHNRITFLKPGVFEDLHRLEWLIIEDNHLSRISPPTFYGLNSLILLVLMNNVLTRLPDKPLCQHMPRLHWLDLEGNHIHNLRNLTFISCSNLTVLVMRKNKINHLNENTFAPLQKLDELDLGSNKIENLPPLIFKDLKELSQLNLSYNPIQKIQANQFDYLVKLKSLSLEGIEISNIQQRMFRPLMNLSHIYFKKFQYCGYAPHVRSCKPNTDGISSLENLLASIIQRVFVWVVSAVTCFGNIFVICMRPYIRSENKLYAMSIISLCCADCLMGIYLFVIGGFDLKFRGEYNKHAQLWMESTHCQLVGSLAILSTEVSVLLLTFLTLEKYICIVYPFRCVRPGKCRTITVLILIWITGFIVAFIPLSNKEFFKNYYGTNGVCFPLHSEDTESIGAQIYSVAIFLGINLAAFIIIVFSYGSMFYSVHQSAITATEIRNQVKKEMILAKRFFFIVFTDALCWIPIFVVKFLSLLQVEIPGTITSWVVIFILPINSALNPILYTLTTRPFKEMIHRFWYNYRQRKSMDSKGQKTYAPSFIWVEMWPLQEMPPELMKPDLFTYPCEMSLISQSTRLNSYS
Nature of the test: cell-based or functional assay.

This is an account of results in patent US20190233494A1 (Sanofi, published 2019).

As to H-VIKLSGRELVRAQIAISGMSTWSKRSL-NH2 [B7-33 C11.23S], the “EC50 (nM), cAMP assay in OVCAR 5 cells” value is 1640 nM and the “Emax, cAMP assay in OVCAR 5 cells” value was found to be 90%.

In the case of Ac-VIKLSGRELVRAQIAISGMSTWSKKKK-NH2 [KKKK(AcB7-29 C11.23S)], the “EC50 (nM), cAMP assay in OVCAR 5 cells” value is 206 nM and the “Emax, cAMP assay in OVCAR 5 cells” value came out at 84%.

As to Ac-VIKLSGRELVRAQIAISGMSTWSKRSL-NH2 [AcB7-33 C11.23S], the “EC50 (nM), cAMP assay in OVCAR 5 cells” value was found to be 929 nM and the “Emax, cAMP assay in OVCAR 5 cells” value came out at 70%.
